# Data published in the domain aggregation screens of Martell et al. (2025).
# Assay: soluble fraction after stress (log2 fold change); higher = more stays soluble; pooled small domains, quantitative proteomics
# Conditions: stress: 50 degC
# In short: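 Quantitative proteomics served as the high-throughput read-out for pooled custom libraries of small protein domains. Each was stressed at 50°C. Aggregation propensity is expressed as the base-two log fold change in soluble protein after stress. A higher value means a larger share of the protein remains in solution.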
row,Sequence,soluble fraction (log2)
1,HMTNKYSSLVIGTVKTIMEEDQYKNLMGPPLKKEIIKQVDKFTNALPIEFDQNDKDFYVKKILINL,-0.304
2,HMSNTVEDLIDDIGTVTKDSKDKIDAARKAYDGLTEDQKKLVPDSVLKTLTDAEAAYAKLTK,-0.0576
3,HMPVNGEFIERIKVMVLENKAKGKKERLTKTRMHQLLQEEGYKGSYSAFTHQVRIIEEELGVNQKEAH,-0.0836
4,HMKSIFIRADELAAELDVSKALAYKMINQWNEELKAKGYTTVGGRVSRQYYYEKIYGAENVFDF,-2.37
5,HMAETLLWADAAQEGLNRIVAAQPILVRISAAKRLRDASEQAAKAAGVSTVEIGHVQHASESLQFGDA,0.165
6,HMDGTAKVAHMLVNELETFNRLKKHEIAYMLHIQPETLSRILNKLTRNGTIEIEKNSVVILNIQELKEIY,-1.55
7,HMKKTPLSELTNRAVELFIETVFMERNYSVSSQRQFISALKIFTVFYPQTKIHNLSLERLQSSFDKLLN,-0.452
8,HMNYYDLLGIPKSATKQQIRKAYRTKAKEFHPDVNGPFNSHMHFLLLKQAYETLMDANMRHVYDMALIS,-1.35
9,HMLIELKIPSEWAGKSLHTLNLRQNYNVNVIGFRDEKSGKLNTHFDPSKKLPDEGIILVVADNRTLEKF,-0.837
10,HMKHFNDEELDGFAGLKSDDYNEEQVELFRNIFEELHPDEIIEWTESLRRRGIEIPSSLKDEVVMMIN,0.173
11,HMFQYEKIKDYILTGLEEGTWQAGDKIPSEAELVMSLNVSRMTVNRAVRELANSGLLVRIPGAGTFVATE,-0.575
12,HMYSVVGKKGIVIEDINYSTGTGQIKSEGEVWSAKTNEQINIPKGTEIEIESIDGVKVIVKPL,0.0184
13,HMEENIKKDIEVPNIEGLTIDEAKKRLKEVNLNISIEDMEEKEGTEIITQQLPKAGIKVKEGVAIIAY,0.0824
14,HMDRSVTAAELRLAAMDLLARREHGSQELEAKLSRRFHKRHYDVELLRSVIEQLTVEGLLSDERFAVS,-0.154
15,HMKKYLNIYNIIVNKIESKEYQSNDKLPSEKELMDQYNVSRDTVRKSLNMLEQNGYIQKTKGKGSFVLDIN,-0.634
16,HMEPKIKQIVPNVVNYPVEDAKNVLVNSGLIVQIRGQGNIVYDQVPKGGAEVTRGTTVILDLNPPPGA,0.42
17,HMQGEVPYSQFLTEVDRGDVQSVVIEGNNISGFYKNSSTAFTVVAPDDPKLVERLMEQGVEVKARPV,0.0205
18,HMGYDLLFQQALGFHEQGRLNEAENIYRQILETAPNNPDILNLLGLIAQQKGLHAQAVDYFYQAIRL,-1.41
19,HMKFYKMIDESDEKIENPEIMIFQIIELVSSTTYSAIINKEPVDVETLKPYLYQTIRTIIINHQS,0.144

row,Sequence,soluble fraction (log2)
1,HMAYVDWYENKQPTHEEAFKKLLGRIHPGAIVLLHSTSKTNGEILDELLTKWEEMGYRFGTLDELTGN,-1.18
2,HMDSVPEEQLRQLALDKAKEVKRWGQPVELAKMNAHDRRIIHINLQDDPEIETRSEGEGALKSVIISLKK,0.172
3,HMEWTVEKQAAATLNAWMRKNSEMTSEKKVAVAAGIGPATVNRIMKAEVSTTIGVLSSLARAFGHEAYEMI,-0.276
4,HMSTDNINYKNILIASLLIHAAKIDENYTENEKNIIKKALIELDEIDSKKADEIMILAEKKE,-0.221
5,HMQYSIQVNKLLKAMREDVWYTANEILDLLKLKSKETLRKNYLDPAINNKLIILELPDKPTSRNQRYKI,-1.66
6,HMARHIHFEVHVQQAGRWSIHAQFGAGQREKAIEEAKKIEKTPGFDSVKVVKETYDSDLGNHQDTTIYRGP,-0.506
7,HMIGAKVLVNGQLHRDSYGEGPGQTESNATRLVNYINMKGSHPYHVTTLDGGWRGWVTADSVQV,0.223
8,HMGSLKISNPVKDTLWIQGVDGLKSIEIYSSTGQLVKTILGNQGDVSSLPKGVYFLKINTPSESLTAKIIK,-0.0698
9,HMTGMEAAEFGKRIMKLRKQKGMTQSKLAEQINVSNKAISRWETGEGFPEITLLKPLAKALGTTVDELFGE,-0.204
10,HMGSDAFDISKLNLVGKTKESAESLLKENGFSVDTKEEASDTAAKGTVISYSPTKPKNGERVTLTVSSGK,0.337
11,HMVEELDVQFIKLTVQGDHPWKNKKIRELSIPWDLLFVLIIRGDKSIIPNGKTTIKDGDIVVVSAPEYRG,-0.676
12,HMHHIDTAWFRGKMREHRLTQEAVGQAIGLERSMVSKIIKGTVSFNARKASAWAQLLRVSESEILERVGI,-2.37
13,HMHGEAEFLDATAVVMEKLNPGGLVKIKGEIWQAVSKDGHTIQEGEKVRVFERQGITLLVGHF,-0.171
14,HMLTRYNVNYYYNGEILQRRKVAEGSAAERITYLSGSLEVTDWYTEADLLRKYDFTEPVTGDLNLYAFARI,-1.05
15,HMDYHTIQTGDKGDEVLRLQQALAEYGYYEGDLDGRFGQQTRRAVERFQYSHGLTADGIAGRNTLSVLYD,-0.101
16,HMHPDHRTATVPDAAAGRRFDAVLAELFPQFSRSKLTTWIKSGEVLLNGEVPRPRDAVVGGETVSLNVVL,-0.275
17,HMRGAIKMAEEQMAGHKKIGSISGTAPTQGELEKKFAMAAAQMGARYYVITGLSNNNYAFGNADIY,-0.316
18,HMNSVKSPMPGTILGLKVSVGDTVKVGDELLVLESMKMENMINSPIDGTVSKILISEGDSVQHGQELII,0.215
